Reference: US20180216194A1

Key:
Test in all cases: Bio-Plex bead immunoassay, multiplexed beads, single antigen, single detection antibody
[1] = molecular target: recombinant OPN protein (R&D Systems Cat. # 1433-OP-050) (Homo sapiens (Human)) (UniProt P10451)
[2] = molecular target: recombinant HSP27 protein (R&D Systems DuoSet Cat. # DY1580) (human) (UniProt P04792)
[3] = molecular target: recombinant MIC-1 protein (R&D Systems DuoSet Cat. # DY957) (human) (UniProt Q99988)
[4] = molecular target: recombinant MIA protein (R&D Systems DuoSet Cat. # DY2050) (human) (UniProt Q16674)
[5] = molecular target: recombinant SPON1 protein (R&D Systems Cat. # 3135-SP/CF) (Homo sapiens (Human)) (UniProt Q9HCB6)
[6] = molecular target: recombinant CEACAM-1 protein (R&D Systems DuoSet Cat. # DY2244) (human) (UniProt P13688)
UniProt P13688, sequence (P13688 35-428 limits assumed): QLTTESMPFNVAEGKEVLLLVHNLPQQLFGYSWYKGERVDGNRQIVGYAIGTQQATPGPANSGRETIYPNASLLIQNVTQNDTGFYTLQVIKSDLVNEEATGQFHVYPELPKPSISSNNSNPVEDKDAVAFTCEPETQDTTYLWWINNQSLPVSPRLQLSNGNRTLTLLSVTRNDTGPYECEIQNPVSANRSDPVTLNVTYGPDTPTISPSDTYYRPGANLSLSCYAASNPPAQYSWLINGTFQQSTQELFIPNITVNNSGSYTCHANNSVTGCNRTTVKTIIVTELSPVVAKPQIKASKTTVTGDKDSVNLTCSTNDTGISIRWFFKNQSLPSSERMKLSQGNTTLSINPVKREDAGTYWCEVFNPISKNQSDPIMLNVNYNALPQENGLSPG

UniProt Q9HCB6, sequence (Q9HCB6 29-807 limits assumed): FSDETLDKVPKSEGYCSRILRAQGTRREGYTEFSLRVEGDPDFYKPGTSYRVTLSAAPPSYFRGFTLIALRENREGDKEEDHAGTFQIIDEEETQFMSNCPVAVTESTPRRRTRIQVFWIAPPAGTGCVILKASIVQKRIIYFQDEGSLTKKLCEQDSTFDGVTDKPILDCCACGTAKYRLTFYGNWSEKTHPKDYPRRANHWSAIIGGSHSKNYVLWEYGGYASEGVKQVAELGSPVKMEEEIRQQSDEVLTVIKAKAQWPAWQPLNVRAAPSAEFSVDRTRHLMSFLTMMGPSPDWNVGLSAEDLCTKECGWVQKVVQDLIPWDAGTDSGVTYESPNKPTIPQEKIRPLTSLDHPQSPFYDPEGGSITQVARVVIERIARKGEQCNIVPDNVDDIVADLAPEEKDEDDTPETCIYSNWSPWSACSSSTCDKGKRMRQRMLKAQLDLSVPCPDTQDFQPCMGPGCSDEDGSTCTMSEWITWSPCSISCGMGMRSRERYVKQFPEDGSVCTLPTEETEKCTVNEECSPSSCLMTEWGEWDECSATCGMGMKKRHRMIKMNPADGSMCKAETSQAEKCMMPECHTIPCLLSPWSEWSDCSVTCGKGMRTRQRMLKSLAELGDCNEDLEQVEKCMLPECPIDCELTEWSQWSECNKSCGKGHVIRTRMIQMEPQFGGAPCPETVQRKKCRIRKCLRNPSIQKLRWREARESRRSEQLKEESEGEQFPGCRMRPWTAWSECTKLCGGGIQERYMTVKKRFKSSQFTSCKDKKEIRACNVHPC
UniProt P04792, sequence (P04792 whole entry): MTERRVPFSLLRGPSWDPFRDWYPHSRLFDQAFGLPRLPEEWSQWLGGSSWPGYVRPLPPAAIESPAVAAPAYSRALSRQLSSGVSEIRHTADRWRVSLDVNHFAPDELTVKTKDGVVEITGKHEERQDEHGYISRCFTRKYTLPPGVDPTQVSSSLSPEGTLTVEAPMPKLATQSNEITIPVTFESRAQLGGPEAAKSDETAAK
UniProt Q16674, sequence (Q16674 25-131 limits assumed): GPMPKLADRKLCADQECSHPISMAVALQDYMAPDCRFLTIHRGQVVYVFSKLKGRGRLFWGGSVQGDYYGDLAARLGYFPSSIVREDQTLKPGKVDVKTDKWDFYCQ
UniProt Q99988, sequence (Q99988 197-308 limits assumed): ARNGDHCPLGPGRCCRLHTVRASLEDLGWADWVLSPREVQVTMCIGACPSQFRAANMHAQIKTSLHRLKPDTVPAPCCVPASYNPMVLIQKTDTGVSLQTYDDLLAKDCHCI
UniProt P10451, sequence (P10451 other isoform, or with tags, fused parts or gaps limits assumed): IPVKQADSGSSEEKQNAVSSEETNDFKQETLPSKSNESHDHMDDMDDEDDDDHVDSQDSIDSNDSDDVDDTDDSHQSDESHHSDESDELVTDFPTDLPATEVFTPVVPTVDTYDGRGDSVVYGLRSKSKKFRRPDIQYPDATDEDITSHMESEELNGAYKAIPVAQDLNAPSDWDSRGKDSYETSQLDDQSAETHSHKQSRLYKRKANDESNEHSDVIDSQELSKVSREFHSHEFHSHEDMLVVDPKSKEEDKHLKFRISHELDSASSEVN

% cross-reactivity (single-detection antibody) [1] [%] | % cross-reactivity (single-detection antibody) [2] [%] | % cross-reactivity (single-detection antibody) [3] [%] | % cross-reactivity (single-detection antibody) [4] [%] | % cross-reactivity (single-detection antibody) [5] [%] | % cross-reactivity (single-detection antibody) [6] [%] | Substance
0 | 0 | 0 | 0.2 | 0 |  | CEACAM-1 capture antibody (R&D Systems DuoSet Cat. # DY2244, mouse)
 | 0 | 0 | 0 | 0 | 0 | OPN capture antibody (R&D Systems Cat. # MAB14332, mouse)
0.3 | 0.1 | 0.1 |  | 0.3 | 0.4 | MIA capture antibody (R&D Systems DuoSet Cat. # DY2050, mouse)
0 | 0 |  | 0 | 0 | 0 | MIC-1 capture antibody (R&D Systems DuoSet Cat. # DY957, mouse)
